B1: SH3 and PX domain-containing protein 2B, residues 155 to 209; numbered along this chain, A1X283 (parent)
chain: EQYVVVANYQKQESSEISLSVGQVVDIIEKNESGWWFVSTAEEQGWVPATCLEGQ

Variants of: B1
Experiment: abundance fitness (aPCA) (normalised: wild type 0, dead -1); higher = more abundant; growth selection in yeast, the domain comes from the species named
Settings: Homo sapiens

Abundance fitness, by site and new letter:
S39: L -0.329; E 0.013; Y -0.312; N -0.022; P -0.864; W -0.371; M -0.018; V -0.414; C -0.022; F -0.241; R -0.009; T -0.039; I -0.297; A -0.08; K -0.035; D -0.113; G -0.107
E29: D -0.104; G -0.19; Y -0.502; I 0.133; L -0.123; M -0.417; V -0.258; R 0.084; T -0.037; P -0.974; Q 0.05; H 0.056; K 0.022; A -0.056; W -0.097; C -0.205; N 0.021; F -0.691; S -0.114
V24: R -0.135; M -0.137; Y -0.263; H -0.284; E 0.027; W -0.075; P -0.135; I -0.026; L -0.128; K 0.069; G -0.157; S -0.071; N 0.001; D -0.277; F -0.239; Q -0.215; A -0.008; C -0.035; T -0.109
K30: E -0.17; P -0.495; G -0.398; I -0.276; R -0.049; V -0.273; L -0.548; Y 0.029; W -0.58; T -0.008; Q -0.027; D -0.767; F -0.357
Q23: R -0.405; T -0.085; W -0.292
G34: D -0.125; F -0.598; W -0.708; R -0.306; Q -0.458; V -0.676; E -0.147; K -0.169; I -0.579; T -0.393; N -0.538; A -0.189; P -0.249; H -0.327; Y -0.492; S -0.208; M -0.216; L -0.423
F37: A -0.174; I -0.181; C -0.127; K 0.066; E -0.237; S -0.109; L 0.03; H -0.068; M -0.069; Y 0.061; Q 0.036; R 0.06; D -0.347; T -0.472
W36: D -0.403; T -0.234; V 0.009; L -0.2; Q -0.71; N -0.367; C -0.11; R -0.462; Y -0.099; H -0.429; K -0.889; G -0.767; F 0.083; A -0.104; S -0.211; M -0.202; I -0.139
W35: Q 0.04; M 0.027; V -0.118; E -0.173; N -0.193; F -0.005; P -0.621; A -0.172; H 0.013; C -0.062; D -0.182; T -0.191; G -0.398; I -0.195; L -0.073; R 0.045; S -0.04; Y -0.22
E43: K -0.167; N 0.017; D 0.087; H -0.021; A -0.038; F -0.265; G 0.041; P -0.856; I -0.155; M -0.117; L -0.263; Q 0.065
D26: Q -0.052; V -0.179; H -0.214; S -0.122; F -0.262; P -0.928; M -0.134; T -0.109; Y -0.272; L -0.078; N 0.146; A -0.054; K 0.028; G -0.126; R -0.103; E -0.112; I -0.508; C -0.269
S33: M -0.272; G -0.088; W -0.387; K 0.058; Q 0.074; F -0.229; D 0.095; N -0.09; P -0.5; E -0.002; L -0.242; I -0.393; Y -0.074; H -0.046; V -0.212; T -0.086; C -0.266
N31: M -0.009; Q -0.188; R -0.007; V -0.158; F -0.259; T -0.154; L -0.092; D -0.116; Y -0.255; K -0.028; I -0.401; W -0.367; C 0.035; P -0.194; E -0.122; A -0.114; H -0.095
I28: R -0.211; S -0.337; G -0.211; C -0.13; K -0.008; Q -0.042; T -0.116; M -0.125; L -0.041; N -0.229; H -0.052; P -0.822; V 0.027; F -0.214; E -0.475; Y -0.462; D -0.451; A -0.319
E42: I -0.387; W -0.118; Y -0.163; C -0.064; S 0.07; P -0.431; D 0.086; G -0.037; K -0.057; H 0.063; M -0.048; A -0.057; Q 0.019
A41: I 0.045; L -0.041; K -0.157; T 0.015; G -0.122; D -0.273; F -0.113; W -0.376; E 0.069; V -0.127; S 0.034; M -0.084; N -0.244; Q -0.133; H -0.009
I27: E -0.944; Y -0.149; A 0.037; G -0.351; R -0.277; V 0.055; D -1.05; N -0.899; Q -0.609; K -0.617; W -0.477; C -0.001; P -0.008; L -0.099; S -0.404; T -0.183; F -0.145; H -0.908; M -0.185
E32: A 0.027; V 0.038; W -0.353; R -0.108; K -0.326; C -0.152; D -0.047; G 0.001; S -0.07; T -0.122; I -0.066; Q 0.001; P -0.084; N -0.078; Y -0.345; M -0.188; H -0.139
V38: T -0.875; L -0.736; F -0.915; W -1.02; P -1.14; E -0.76; H -1.13; G -0.363; I -0.319; A -0.07; R -0.963; K -1.03; C -0.298; Y -0.921; D -0.736; N -0.895; Q -1.08
V25: M -0.801; R -0.945; H -0.656; E -0.752; P -0.825; K -0.902; G -0.878; W -0.983; N -0.95; T -0.513; F -0.964; S -0.95; C -0.393; L -0.378; I -0.317
T40: D -0.234; V -0.042; W -0.354; K -0.035; N -0.137; L -0.031; Q 0.063; G -0.19; P -0.699; F 0.02; C -0.201; A -0.124; S 0.015; Y -0.151; E -0.337; M -0.065; I -0.121; H -0.15
